Reference: patent US7419670B2, “Method of treating arthritis with SERP-1 and an immunosuppressant” (Viron Therapeutics, Inc., priority 2000, dated 2008)

Columns and labels:
[1] = test system: Collagen-induced Arthritis (CIA) in Rats; assay: CIA in rats: blinded radiographic scoring of the ankle joint at study termination; assay type: in vivo, rats (Louvain); conditions: mean ± SD; control group 4.27±1.68; p=0.02
Method: Twenty four rats (Louvain) weighing 125-150 g were housed at the UCLA vivarium facility and were fed standard laboratory chow and water.
Type II collagen, (CII) was prepared by pepsin treatment of chick sternal cartilage or was purchased from Genzyme (Boston, Mass.). Rats were anesthetized with ether and were immunized intradermally at several sites on the back, with 0.5 mg native CII solubilized in 0.1M acetic acid and emulsified in FIA (Difco, Detroit, Mich.). The signs and symptoms of rheumatoid arthritis developed over a period of ten days after immunization with collagen. (Oliver and Brahn, (1996) J. Rheumatol. 23, S44-56-60, incorporated herein by reference).
Cyclosporin at (4 mg/kg/d; sc) was administered by osmotic pump for the duration of the study. […]
The incidence and severity of chronic arthritis in SERP-1/CsA treated and untreated rats was evaluated via a number of study endpoints. During the experimental phase of the study, the individual hind limbs of each rat was evaluated daily and arthritis severity was quantified by assigning a score (0=normal, 4=maximum/hindpaw) based on increasing levels of swelling and periarticular erythema. The daily, arthritic severity scores for each rat were recorded from disease onset (day 10) until study termination (Table 1). […]

[2] = test system: intimal fatty cellular proliferation associated with restenosis; conditions: rabbits following balloon angioplasty; cited from earlier work

B1: SERP-1: viral serine protease inhibitor produced by malignant rabbit fibroma virus and myxoma virus; sequence of SEQ ID NO: 1 (protein, listed as Myxoma virus)
chain: MKYLVLVLCLTSCACRDIGLWTFRYVYNESDNVVFSPYGLTSALSVLRIAAGGNTKREIDVPESVVEDSDAFLALRELFVDASVPLRPEFTAEFSSRFNTSVQRVTFNSENVKDVINSYVKDKTGGDVPRVLDASLDRDTKMLLLSSVRMKTSWRHVFDPSFTTDQPFYSGNVTYKVRMMNKIDTLKTETFTLRNVGYSVTELPYKRRQTAMLLVVPDDLGEIVRALDLSLVRFWIRNMRKDVCQVVMPKFSVESVLDLRDALQRLGVRDAFDPSRADFGQASPSNDLYVTKVLQTSKIEADERGTTASSDTAITLIPRNALTAIVANKPFMFLIYHKPTTTVLFMGTITKGEKVIYDTEGRDDVVSSV
[1]
  joint erosions (radiographic score): 2.58±1.88
[2]
  intimal fatty cellular proliferation associated with restenosis: decrease
